# Source: PMC9502857, “Heterologous Expression and Catalytic Properties of Codon-Optimized Small-Sized Bromelain from MD2 Pineapple” (Molecules, 2022)
# Tested on: O=C(CNC(=O)OCc1ccccc1)Oc1ccc([N+](=O)[O-])cc1
# Assay: purified protein
# Settings: 20 mM Tris-HCl pH 8.0, 37 °C (methods; results pH 5.0), GST fusion
substance,measurement,value
MD2-SBro (small-sized bromelain from MD2 pineapple) (Ananas comosus),Km,42.1 ± 3.81 µM
same,Vmax,0.432 µM/min
same,kcat,0.2 ± 0.008 s⁻¹
same,kcat/Km,4750 ± 230 M⁻¹ s⁻¹
